Here are results for two molecules from article PMC9477884 (Communications Biology, 2022).

One data set concerns the target T1, MazE6 (UniProt P9WJ87 1-82).
T1 sequence: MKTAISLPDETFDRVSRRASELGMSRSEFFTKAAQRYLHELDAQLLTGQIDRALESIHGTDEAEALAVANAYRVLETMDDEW
The data set can be described thus: gel filtration. As to conditions: protein: recombinant; chain copies: 2; blunt.

Data set [1] concerns the molecule itself. In words: SEC-MALS; MazE6 in solution; observed mol. wt. 17 kDa. (In general: SEC sorts molecules by how far they enter the pores of the column.)

B1: mazEF6 operator DNA (dsDNA)
DNA 1: CCGGTTATACTATCTGTA
DNA 2: TACAGATAGTATAACCGG
Take B1: the binding result in the data set with MazE6 is recorded as “binds”.

B2: MazE6 antitoxin (residue 1-82) (natural protein)
chain: MKTAISLPDETFDRVSRRASELGMSRSEFFTKAAQRYLHELDAQLLTGQIDRALESIHGTDEAEALAVANAYRVLETMDDEW
For the molecule B2, the stoichiometry N – broadly, the number of molecules, sites or subunits per partner or assembly – in data set [1] was 2.
